Target: 14-3-3γ (UniProt P61982)
Assay: anti-Flag co-IP, anti-HA blot
Settings: reference: wild-type HA-TMCC3-D1; sites S15

binding against the reference: weaker
Substance: TMCC3 TMCC3-D1, 1-210 (from UniProt Q8R310) HA-TMCC3-D1-S15A

Source: PMC9860497
